Laboratory results as given in the nanobody polyreactivity screen of Harvey et al. (2022).

Test: yeast display, Sf9 membrane polyspecificity reagent, FACS + sequencing; frameworks hold sequencing errors
In short: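 Genes from sorted yeast were amplified by colony PCR, read by MiSeq 2 × 250 sequencing and filtered on CDR length. These cells carried a synthetic nanobody library in Saccharomyces cerevisiae BJ5465 and were sorted by FACS into low and high (top ~1%) gates on anti-HA and streptavidin fluorescence. Polyreactivity is labelled according to the gate of origin.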

Sequence	polyreactivity (PSR sort gate)
QVQLVESGGGLVQAGGSLRLSCAASGIIYITNAMGWYRQAPGKERELVAAISSTVSTNYADSVKGRFTISRDNAKNTVYLQMNSLKPEDTAVYYCAAEWGLTQGESIYDYWGQGTQVTVSS	low polyreactivity
QVQLVESGGGLVQAGGSLRLSCAASGRTIRYNAMGWYRHAPGKERELVAAITGSGGSTYYADSVKGRFTISRDNAKNTVYLQMNSLKPEDTAAYSCNAVGIWFPIRLIVPYDYWGQGTQVTVSS	low polyreactivity
QVQLVESGGGLVQAGGSLRLSCAASGFTIRSYVMGWYRQAPGKEREFVAAISYRGGGTNYADSVKGRFTISRDNAKNTVYLQMNSLKPEDTAVYYCNALVYDQYGYYHYYLRNGGYYWGQGTQVTVSS	high polyreactivity
QVQLVESAGGLVQAGGSLRLSCAASGFTFRYYAMGWYRQAPGKERELVAAISWSGGRTYYADSVKWRLTISRDNANNTVYLQMNSLKPEDTADYYCAADGYQYFYGDFDYWGQGTQVTVSS	high polyreactivity
QVQLVESGGGLVQAGGSLRLSCAASGFIFVGYAMGWYRQAPGKERELVAAISWDGGSTDYADSVKGRFTISRDNAKNTVYLQMNSLKPEDTAVYYCAASYQYWGFWYEYWGQGTQVTVSS	high polyreactivity
QVQLVESGGGLVQAGGSLRLSCAASGRIFQYYTMGWSRQAPGKERELVAAITRSGGSTYYADSVKGRFTISRDNAKNTVYLQMNSLKPEDTAVYYFNADTRVKLPWYYTFDYLGQGTQVTVSS	low polyreactivity
QVQLVESGAGLVQAGGSLRLSCAASGGTFLYYAMGWYRQAPGKERELVAVINSNGGSTYYADSVKGRFTISRDNAKNTVYLQMNSLKPEDTAVYYCAADYQSYVYIGYGYWGQGTQVTVSS	low polyreactivity
QVQLVESGGGLVQAGGSLRISCAASGRTFKRYAMGWYRQAPGKERELVAAITGTGAITYYADSVKGRFTISRDNAKNTVYLQMNSLKPEDTAVYYCNARYWYRYGGYKPVGGYYWGQGTQVTVSS	high polyreactivity
QVQLVESGGGLVQAGGSLRLSCAASGRTFTQNAMGWYRQAPGKERELVAAISSGGRTYYADSVKGRFTISRDNAKNTVYLQMNSLKPEDTAVYYCNAGGGRRMYWGLGTQVTVSS	high polyreactivity
QVQLVESGGGLVQSGGTLRLSCAASGSTFYVNAMGWYRLAPGKERELVAAINYSGGNTYYADSVKGRFTFSRDNAKNTVYLQMNTLKQEDTAVYYCAVDLIIKGYPWWIEDDYWGQGTQVTVSS	high polyreactivity
QVQLVESGGGLVQAGGSLRLSCAASGRTFYSYAMGWYRQAPGKERELVAGITWSGTSTYYADSVKGRFTISRDNAKNTVYLQMNSLKPEDTAVYYCAADSIQYTARPYDYWGQGTQVTVSS	low polyreactivity
QVQLVESGGGLVQAGGRLRLSCAASGFTFKRNAMGWYRQAPGKERELVAAITWSGGSTYYADSVKGRFTISRDNAKNTVYLQMNSLKPEDTAVYYCAALYRSRYYAGDYLGQGTQVTVSS	high polyreactivity
QVQLVESGGGLVQAGGSLRLSCPASGSIIYYAMGWSRQPPGKEREFVAAITKSGGSTYYADSVKGRFTFSRDNAKNTVYLQMNSLKPEDTAVYYCSARGTWAGFYYWGQGTQVTVSS	high polyreactivity
QVQLVESGGGLVQAGGSLRLSCAASVFTFTHYAMGWYRQSAGKERELVAAISTSGVSTYYSDSVKGRFTISRDNAKNTVYLQMNSLKPEDTAVYYCAARRDGWFQWGYYYWGQGTQVTVSS	low polyreactivity
QVQLVESGGGLVQAGGSLRLSCAASGRILIHYAMRWYRQAPGKERELVAAIDNSVSTYYADSVKGRFTISRDNAKNTVYLQMNSLKPEDTAVYYCAADHWTHSVWGSGYKYYYWGQGTQVTVSS	high polyreactivity
QVQLVESGGGLVQAGGSLRISCAASGRIFGKNALGRYRQAPGKERDLVAAITGSGGSTYYADSVKGRFTISRDNAKNTVYLQMNSLKPEDTAVYYCATAYAVYHVEYGYWGQGTQVTVSS	low polyreactivity
QDQLVESGGGLVQAGGSLRLSCAASGSIFVENDMGWYRQAPGKERELVAVITSGGSTYYADSVKGRFTISRDNAKNTVYLQMNSLKPEDTAVYYCNKDYAAIDRYDSWGQGTQVTVSS	low polyreactivity
QVQLVESGRGLVQAGGSLRLSCAASGRIFKAYAMGWYRQATGKERELVAAITRGGRTKYADSVKGRFTISRDNAKNTVYLQMNSLKPEDTAVYYCAAELPGGYLVDYDYWGHGTQVTVSS	high polyreactivity
QVQLVESGGGLVQAGGSLRLSCAASGFTFGYNAMGWYRQAPGKERELVAAISSSGGSTYYADSVKGRFTISRDNAKNTVYLQMNSLKPEDTAVYYCAKRTPRKWGQGTQVTVSS	high polyreactivity
QVQLVESGGGLDQAGGSLRLSCAASGSISLNAMGWYRQGPGKEREFVAVITWRVGDTYYADSVKGRITISRDNAKNTVYLQLNSRKPEDSAVYYCAADDLYYQGIYRGSEFDYWGQGTQVTVSS	low polyreactivity
QVQLVESGGGLVQAGGSLRLSCAASGRTFAVNALGWYRQAPGKERELVAAIRTGSTYYADSVKGRFTISRDNAKNTVYLQMNSLKPEDTAVYFCAAPYRADSYDYWGQGTQVTVSS	high polyreactivity
QVQLVESGGGLVQAGGSLRLSSAPSGSTFPGYAMGWYRQAPGKERQLVAAITGRGTSTYYADSVKGRFTISRDNAKNTVYLQMNSLKPEDTAVYYCAPYATFPTRYYYWGQGTQVTVSS	high polyreactivity

Sequence	polyreactivity (PSR sort gate)
QVQLVESRVGLVKAGGSLRLSCAASGITLYWYAMGWYRQAPGKESELVAAISRRGGTTYYSDSVKGRFTISRDNAKNTVYLQMNILKPEDTAVYYCAKAPDTQTSWSRQEGNYWGQGSQVTVSS	low polyreactivity
QVQLVESGGGLVQAGGSLRLSCAASGRTFQYYAMGWYRQAPGKEREFVAAISRSGGSTYYADSVKGRFTISRDNAKNTVYLQMNSLKPEDTAVYYCAADAYRSSYDYWGQGTQVTVSS	low polyreactivity
QVQLVESGGGLVQAGGSLRLSCAASGLTLGSYAMGWYRQAPGKERELVAAISRRSGRTYYADSVKGRFTISRDNAKNTVYLQMNSLKPEDTAVYYCAAEIPYYVDTPGDDYWGQGTQVTVSS	low polyreactivity
QVQLVESGGGLVQAGGSLRLSCAASGIIFQNYDMGWYRQAPGKARELVAAITGSGGSTYYADSVKGRFTISRDNAKNTVYLQMNSLKPEDTAVYYCNAVWEYYGKSDYWGQGTQVTVSS	low polyreactivity
QVQLVESGGGLVQAGGSLRLSCAASGSIFRIYAMGWYRQAPGIERELVAAINAGGGRTYYADSVKGRFTISRDNAKNTVYLLMNSLKPEDTAVYYCAARHTEYRQESLYYWGQGTQVTVSS	low polyreactivity
QVQLVESGGGLVQAGGSLRLSCAASGSNIGLNAMGWSRQAPGKEREWVAAITRISGRTRYADSVKRRFTISRDNAKNTVSLQMNSLKPEDTAVYYCDARFQSTNGHKYYYWGQGTQVTVSS	high polyreactivity
QVQLVESGGGLVQAGGSLRLSCAASGSILAYNAMGWYRQAPGKEREFVAAITGGVGSTYYADSVKGRFTISRDNAKNTVYLQMNSLKPEDTAVYYCAKRTYHEYNNQFVKYYYWGQGTQVTVSS	high polyreactivity
QVQLVESGGGLVQAGGSLRLSCAASGIIFVGYAMGWYRQAPGKERELVAGINCGGSTNYADSVKGRFTISRDNAKNTVYFQMNSLKPEDTAVYYCAAYPFDYYGYDYWGLGTQVTVSS	low polyreactivity
QVQLVESGGGLVQAGGSLSLSCAATGINYGDYAMGWYRQAPGKERELVAAISSDTSTNYADSVKGRFTISRDNAKNTVYLQMNSLKPEDTAVYECAAEGSYYGWYQGFDYWGQGTQVTVSS	low polyreactivity
QVQLVESGGGLVQAGGSLRLSCAASGSTFRAYAMGWYRQAPGKERELVAAISSGGSTYYADSVKGRFTISRDNAKITVYLQMNCLKPEDTAVYHCAKGWYYVSPYGYRKGVYYWGQGTKVTVSS	high polyreactivity
QVQLVESGGGLVQAGGSLRLSCAASGFIFGSNAMGWYRQAPGKERELVAAISRSGGSTYYADSVKGRFTISRDNAKNTVYLQMNSLKPEDTAVYYCASYLYKSRYLPEYDYWGQGTQVTVSS	high polyreactivity
QVQLVESGGGLVQAGGSLRLSCAASGSTFAGYTMGWYRQAPGKERELVAAITGGGSTYYADSVKGRFTISRDNAKNTVYLQMNSLKPEDTAVYYCAARWWTYGIGYGYWGQGTQVTVSS	high polyreactivity
QVQLVESGGGVDQAGGSLRLSCAACGSTIPYYAMGWYRQAPGKERELVAAISASTGSTNYADSVKGRFTISRDNAKNTVYLQMNSLKPEDTAVYYCAKKRSKIKRFGYWGHGTQVTVSS	high polyreactivity
QVQLVESGGGIVQSGGSLRLSCAASGSIFQPYAMGWYRQAPGQEREFVAAISRSGGITYYADSVKGRFTISRDNAKNTVYLQMYSLKPEDTAVYYCATGRQVVRSYSEGDYWGQGTQVTLSS	low polyreactivity
QVQLVESGGGVVQAGGSLRLSCAASGRTFLVTALGWYRQAPGKERELVAVITRGGSTNYADSVKGRFTISRDNAKNTVYLQMNSLKPEDTAVYYCAKQFSPYRSYGPVVRYDYWGQGTQVTVSS	low polyreactivity
QVQLVESGGGLVQAGGSLRLSCAASGRTFNTYDMGWYRQAPGKERELVAAITSRGGTTYYADSVKGRFTITRDNAKNTVYLQMNSLKPEDTAVSYCAADYYSWDYQYDYDYWGQGTQVTVSS	low polyreactivity
QVQLVESGGGLVQAGGSLRLSCAASGITFRGYAMGWYRQAPGKERELVAAITWSGGSTYYADSVKGRFTISRDIAKNTVYLQMKSLKPEDTAVYYCAARGRRSFEYWGQGTHVTVSS	high polyreactivity
QVQLVESGGGLVQAGGSLRLSCAASGSIFTYYAMGWYRQAPGKERELVAAISRRGGSTYYAVSVKGRFTISRDNAKNTVYLQMNSLKPEDTAVYYCNKVAYPRYYTGVNEFDYWGQGTQVTVSS	high polyreactivity
QVQLVESGGGLVQAGGSLRLSCAASGSIFFSNAMGWYRQAPGKERELVAAITSTGGSTYYADSVKGRFTISRDNAKNTVYLQMNSLKPEDTAVYYCAAASRRGYYYWGQGTQVTVSS	high polyreactivity
QVQLVESGGGIVQAGGSLRLSCASSGFTFNLYAMGWYRHAPGNERELVAAINWSGGTYYADSVKGRFTISRDNAKNNVYLQMKILKPEDTAVYYCNARYVYHSSFAGFDYWGQGTQVTVSS	low polyreactivity
QVQLVESGGGLVQAGGSLRLSCAASGRIFYRNVMGWYRQAPGKERELVAAISYRGGSTSYADSVKGRFTISRDNAKNTVYLPMHILKPEDTAVDYCNAARIRPAYSDREYWGQGTQVTVSS	low polyreactivity
